This data set deals with the molecule itself. Put plainly: AFM imaging on mica (self-association, not fibrils). The procedure:
Pieces of 8.0 mm×8.0 mm×0.5 mm muscovite mica were cut and mounted on standard microscope slides using composite epoxy glue (5 Minute Epoxy, ITW Performance Polymers and Fluids, FL. USA). Before protein deposition, the top layer(s) of mica was peeled mechanically to expose fresh (0001) surfaces. For SBAFP-m1 or wild type WT SBAFP, 20 μl of sample in Tris buffer (100 mM, pH8.0) were deposited on the freshly exposed mica(0001) surfaces. After 5 min incubation, the surfaces were washed three times with 200 μl Tris buffer (100 mM, pH 8.0) to remove weakly bound proteins and fibrils. The samples were immediately imaged in the Tris buffer. Sample preparation for RGAFP-m1 or WT RGAFP followed similar protocols except for the surface coating and imaging medium. The freshly cleaved mica(0001) surfaces were coated with poly-L-Lysine, by dropping 80 μl 0.1% (w/v) poly-L-Lysine (Sigma P8920, MW 150-300 kDa) onto the surface, incubating for 5 min, then washing with MilliQ water. The surfaces were dried with clean air before protein deposition. The samples were imaged under ambient conditions.
The formation of fibers by SBAFP-m1 was analyzed after 48 h and 3 weeks of incubation at 37° C. […] The expansion (FIG. 10A inset) allows an accurate height determination of 1.5-3 nm, but predominantly between 2.5 and 3 nm. […]

B1: WT SBAFP (other)
chain: DGTCVNTNSQITANSQCVKSTATNCYIDNSQLVDTSICTRSQYSDANVKKSVTTDCNIDKSQVYLTTCTGSQYNGIYIRSSTTTGTSISGPGCSISTCTITRGVATPAAACKISGCSLSAM
notes: Gene in pET20b from the Davies lab, expressed in E. coli; also called wild type spruce budworm antifreeze protein; isozyme 501
On to B1, for which the binding result was “binds”.

The record behind these values is US20170058007A1 (University of California, published 2017).
